Laboratory results taken from patent US20180169189A1 (AUTOLUS, published 2018).

Assays:
[1] = target: T1, carboxy-terminal (endodomain) truncate of CD20 (human, UniProt P11836 2-236); assay: flow cytometry, transfected 293T cells
T1 construct: Expressed on transfected 293T cells, fused or co-expressed with eGFP (the text and the legend differ); also called CD20d
T1 sequence: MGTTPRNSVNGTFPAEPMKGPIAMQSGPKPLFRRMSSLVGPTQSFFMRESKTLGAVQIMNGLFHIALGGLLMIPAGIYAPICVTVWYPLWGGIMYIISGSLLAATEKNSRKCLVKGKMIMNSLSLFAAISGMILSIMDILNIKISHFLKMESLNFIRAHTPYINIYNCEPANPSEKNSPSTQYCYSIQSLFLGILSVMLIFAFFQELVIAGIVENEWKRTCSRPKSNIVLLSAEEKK
Source text: (§1) To this end: full-length CD20; an amino-terminal (endodomain) truncate of CD20; and a carboxy-terminal (endodomain) truncate of CD20 were each fused with eGFP.

[2] = target: T2, amino-terminal (endodomain) truncate of CD20 (human, UniProt P11836 42-297); assay: flow cytometry, transfected 293T cells
T2 construct: Expressed on transfected 293T cells, fused or co-expressed with eGFP (the text and the legend differ); As expressed in dCD20-FAS, the construct carries an extra N-terminal MG; also called dCD20
T2 sequence: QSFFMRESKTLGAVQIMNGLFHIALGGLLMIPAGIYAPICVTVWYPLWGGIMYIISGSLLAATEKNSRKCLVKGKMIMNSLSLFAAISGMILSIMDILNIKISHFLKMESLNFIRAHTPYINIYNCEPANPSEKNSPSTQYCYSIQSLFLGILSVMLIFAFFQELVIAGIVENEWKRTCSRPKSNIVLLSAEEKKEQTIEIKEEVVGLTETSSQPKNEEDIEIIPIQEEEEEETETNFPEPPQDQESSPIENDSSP
Source text: as §1

CD20-P172W = target: T3, CD20-P172W (human, UniProt P11836 1-297); assay: flow cytometry staining of transfected 293T cells
T3 construct: also called P172W mutated CD20
T3 sequence: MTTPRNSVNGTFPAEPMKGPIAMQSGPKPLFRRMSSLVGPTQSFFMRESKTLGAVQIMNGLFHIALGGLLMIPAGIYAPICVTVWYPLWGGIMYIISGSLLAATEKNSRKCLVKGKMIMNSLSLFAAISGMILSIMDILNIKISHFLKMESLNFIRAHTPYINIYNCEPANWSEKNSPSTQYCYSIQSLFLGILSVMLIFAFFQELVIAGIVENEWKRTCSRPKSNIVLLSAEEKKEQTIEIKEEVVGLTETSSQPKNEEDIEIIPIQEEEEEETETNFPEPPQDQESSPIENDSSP

binding result [1]: binds | binding result [2]: binds | binding result (CD20-P172W): no binding
B1: Rituximab (antibody, V domains shown)
VH: QVQLQQPGAELVKPGASVKMSCKASGYTFTSYNMHWVKQTPGRGLEWIGAIYPGNGDTSYNQKFKGKATLTADKSSSTAYMQLSSLTSEDSAVYYCARSTYYGGDWYFNVWGAGTTVTVS
VL: QIVLSQSPAILSASPGEKVTMTCRASSSVSYIHWFQQKPGSSPKPWIYATSNLASGVPVRFSGSGSGTSYSLTISRVEAEDAATYYCQQWTSNPPTFGGGTKLEIKR
notes: also called Rituxumab; Rituxan
